The data set can be described thus: total protein half-life in vivo (active degradation + dilution); higher = more stable protein.
Where [1] appears, read: E. coli NCM3722 delta-clpP delta-lon delta-hslV, growth: N-lim chemostat, doubling time 6 h.
Setting [2] is: E. coli NCM3722 delta-clpP, growth: N-lim chemostat, doubling time 6 h.
Where [3] appears, read: E. coli NCM3722 delta-hslV, growth: N-lim chemostat, doubling time 6 h.
[4] abbreviates: E. coli NCM3722 delta-lon, growth: N-lim chemostat, doubling time 6 h.
The mark [5] stands for this setting: E. coli NCM3722 delta-smpB, growth: N-lim chemostat, doubling time 6 h.
Where [6] appears, read: wild type E. coli NCM3722, growth: C-lim chemostat, doubling time 3 h.
[7] abbreviates: wild type E. coli NCM3722, growth: C-lim chemostat, doubling time 6 h.
Where [8] appears, read: wild type E. coli NCM3722, growth: C-lim chemostat, doubling time 12 h.
[9] abbreviates: wild type E. coli NCM3722, growth: N-lim chemostat, doubling time 6 h.
Setting [10] is: wild type E. coli NCM3722, growth: N-lim chemostat, doubling time 12 h.
Where [11] appears, read: wild type E. coli NCM3722, growth: P-lim chemostat, doubling time 6 h.
The mark [12] stands for this setting: wild type E. coli NCM3722, growth: P-lim chemostat, doubling time 12 h.

This note sets out measurements from the supplement of paper PMC11246515.

± gives the standard deviation of the averaged measurements.

Regarding “MSLWKKISLGVVIVILLLLGSVAFLVGTTSGLHLVFKAADRWVPGLDIGKVTGGWRDLTLSDVRYEQPGVAVKAGNLHLAVGLECLWNSSVCINDLALKDIQVNIDSKKMPPSEQVEEEEDSGPLDLSTPYPITLTRVALDNVNIKIDDTTVSVMDFTSGLNWQEKTLTLKPTSLKGLLIALPKVAEVAQEEVVEPKIENPQPDEKPLGETLKDLFSRPVLPEMTDVHLPLNLNIEEFKGEQLRVTGDTDITVSTMLLKVSSIDGNTKLDALDIDSSQGIVNASGTAQLSDNWPVDITLNSTLNVEPLKGEKVKLKMGGALREQLEIGVNLSGPVDMDLRAQTRLAEAGLPLNVEVNSKQLYWPFTGEKQYQADDLKLKLTGKMTDYTLSMRTAVKGQEIPPATITLDAKGNEQQVNLDKLTVAALEGKTELKALLDWQQAISWRGELTLNGINTAKEFPDWPSKLNGLIKTRGSLYGGTWQMDVPELKLTGNVKQNKVNVDGTLKGNSYMQWMIPGLHLELGPNSAEVKGELGVKDLNLDATINAPGLDNALPGLGGTAKGLVKVRGTVEAPQLLADITARGLRWQELSVAQVRVEGDIKSTDQIAGKLDVRVEQISQPDVNINLVTLNAKGSEKQHELQLRIQGEPVSGQLNLAGSFDRKEERWKGTLSNTRFQTPVGPWSLTRDIALDYRNKEQKISIGPHCWLNPNAELCVPQTIDAGAEGRAVVNLNRFDLAMLKPFMPETTQASGIFTGKADVAWDTTKEGLPQGSITLSGRNVQVTQTVNDAALPVAFQTLNLTAELRNNRAELGWTIRLTNNGQFDGQVQVTDPQGRRNLGGNVNIRNFNLAMINPIFTRGEKAAGMVSANLRLGGDVQSPQLFGQLQVTGVDIDGNFMPFDMQPSQLAVNFNGMRSTLAGTVRTQQGEIYLNGDADWSQIENWRARVTAKGSKVRITVPPMVRMDVSPDVVFEATPNLFTLDGRVDVPWARIVVHDLPESAVGVSSDVVMLNDNLQPEEPKTASIPINSNLIVHVGNNVRIDAFGLKARLTGDLNVVQDKQGLGLNGQINIPEGRFHAYGQDLIVRKGELLFSGPPDQPYLNIEAIRNPDATEDDVIAGVRVTGLADEPKAEIFSDPAMSQQAALSYLLRGQGLESDQSDSAAMTSMLIGLGVAQSGQIVGKIGETFGVSNLALDTQGVGDSSQVVVSGYVLPGLQVKYGVGIFDSIATLTLRYRLMPKLYLEAVSGVDQALDLLYQFEF”, the “total protein half-life in vivo” value is 5.88 ± 0.49 h under setting [1]; 6.03 ± 0.44 h under setting [2]; 6.95 ± 0.39 h under setting [3]; 6.374 ± 0.041 h under setting [4]; 5.69 ± 0.29 h under setting [5]; 3.04 ± 0.044 h under setting [6]. The “total protein half-life in vivo” value by setting is: under setting [7], 5.97 ± 0.5 h; under setting [8], 11.7 ± 1.2 h; under setting [9], 6.2514 ± 0.0027 h; under setting [10], 12.1 ± 0.24 h; under setting [11], 5.992 ± 0.026 h; under setting [12], 12.22 ± 0.066 h.

Consider “MNNIQLAHGSGGQAMQQLINSLFMEAFANPWLAEQEDQARLDLAQLVAEGDRLAFSTDSYVIDPLFFPGGNIGKLAICGTANDVAVSGAIPRYLSCGFILEEGLPMETLKAVVTSMAETARAAGIAIVTGDTKVVQRGAVDKLFINTAGMGAIPANIHWGAQTLTAGDVLLVSGTLGDHGATILNLREQLGLDGELVSDCAVLTPLIQTLRDIPGVKALRDATRGGVNAVVHEFAAACGCGIELSEAALPVKPAVRGVCELLGLDALNFANEGKLVIAVERNAAEQVLAALHSHPLGKDAALIGEVVERKGVRLAGLYGVKRTLDLPHAEPLPRIC”, for which the “total protein half-life in vivo” value reads like this: under setting [1], 3.91 ± 0.43 h; under setting [2], 3.16 ± 0.4 h; under setting [3], 3.27 ± 0.042 h; under setting [4], 3.76 ± 0.14 h; under setting [5], 3.59 ± 0.38 h; under setting [6], 2.96 ± 0.3 h. Besides, the “total protein half-life in vivo” value under setting [8] worked out at 9.14 ± 0.81 h; the “total protein half-life in vivo” value under setting [9] amounted to 3.28 ± 0.28 h; the “total protein half-life in vivo” value under setting [10] is 4.8 ± 0.18 h; the “total protein half-life in vivo” value under setting [11] came to 4.98 ± 0.13 h; the “total protein half-life in vivo” value under setting [12] was 9.482 ± 0.012 h.

“MKTIHDIRRSNARKLRDGVGGNSSFATMIDREPTQTSRFMGDGATKNIGDSMARHIEKCFDLPVGWLDQEHQTTNITKKPDVSITNKQITLVPVISWVQAGAWKEVGYSEVDLSTAETYPCPVPCGEMTYILRVIGDSMIDEYRPGDMIFVDPEVPACHGDDVIALMHDTGETTFKRLIEDGTQRYLKALNPNWPEPYIKINGNCSIIGTVIFSGKPRRYKIKA”: the “total protein half-life in vivo” value stood at 5.24 ± 0.42 h under setting [1]; 5.02 ± 0.3 h under setting [2]; 4.84 ± 0.77 h under setting [3]; 4.886 ± 0.017 h under setting [4]; 5.12 ± 0.24 h under setting [5]; 6.8 ± 0.23 h under setting [7]. The “total protein half-life in vivo” value was determined as 9.86 ± 0.61 h under setting [8]; 5.26 ± 0.76 h under setting [9]; 7.94 ± 0.96 h under setting [10]; 4.81 ± 0.62 h under setting [11]; 12.7 ± 2 h under setting [12].

As to “MLKKFRGMFSNDLSIDLGTANTLIYVKGQGIVLNEPSVVAIRQDRAGSPKSVAAVGHDAKQMLGRTPGNIAAIRPMKDGVIADFFVTEKMLQHFIKQVHSNSFMRPSPRVLVCVPVGATQVERRAIRESAQGAGAREVFLIEEPMAAAIGAGLPVSEATGSMVVDIGGGTTEVAVISLNGVVYSSSVRIGGDRFDEAIINYVRRNYGSLIGEATAERIKHEIGSAYPGDEVREIEVRGRNLAEGVPRGFTLNSNEILEALQEPLTGIVSAVMVALEQCPPELASDISERGMVLTGGGALLRNLDRLLMEETGIPVVVAEDPLTCVARGGGKALEMIDMHGGDLFSEE [P0A9X4]”, the “total protein half-life in vivo” value is, setting by setting: under setting [3], 6.55 ± 0.53 h; under setting [4], 6.29 ± 0.99 h; under setting [5], 5.69 ± 0.23 h; under setting [6], 3.039 ± 0.01 h; under setting [7], 6.72 ± 0.37 h; under setting [8], 12.1 ± 0.77 h. Further, the “total protein half-life in vivo” value under setting [9] was 6.13 ± 0.39 h, the “total protein half-life in vivo” value under setting [10] is 12.1 ± 0.8 h, the “total protein half-life in vivo” value under setting [11] is 5.94 ± 0.36 h and the “total protein half-life in vivo” value under setting [12] turned out to be 12.4 ± 0.42 h.

“MQLNITGNNVEITEALREFVTAKFAKLEQYFDRINQVYVVLKVEKVTHTSDATLHVNGGEIHASAEGQDMYAAIDGLIDKLARQLTKHKDKLKQH [P0AFX0]”: the “total protein half-life in vivo” value was determined as 4.19 ± 0.41 h under setting [1]; 3.97 ± 0.51 h under setting [2]; 3.49 ± 0.22 h under setting [3]; 4.08 ± 0.13 h under setting [4]; 3.67 ± 0.043 h under setting [5]; 2.51 ± 0.14 h under setting [6]. The “total protein half-life in vivo” value was 4.75 ± 0.17 h under setting [7]; 8.14 ± 0.53 h under setting [8]; 3.39 ± 0.5 h under setting [9]; 7.37 ± 0.34 h under setting [10]; 4.21 ± 0.12 h under setting [11]; 7.16 ± 0.65 h under setting [12].
